Assay results: patent publication US20190382484A1 (Chugai, published 2019)
Blank lines part the entries; values can stand above or below the binder they belong to.

How the values were obtained:
[1] = target: T1, antibody-half molecule A1 with PF1H / PF1L-k0 (PF1H-DA303v2/PF1L-k0); test: SPR (Biacore T200), about 50 RU of half molecule A captured via biotinylated antigen peptide, half molecule B as analyte at 2.5 mg/mL, 25 C (Example 10)
Procedure: (§1) The interaction between the obtained antibody-half molecules was analyzed using Biacore (registered trademark) T200. Biotin CAPture Kit, Series S (GE Healthcare) was used for the measurement, and HBS-EP+10X (GE Healthcare) diluted 1/10th was used as a running buffer. The measurement temperature was 25° C. For the sensor chip, Series S Sensor Chip CAP (GE Healthcare) onto which previously-biotinylated antigen peptides were allowed to interact and thereby immobilized was used. These chips were allowed to capture approximately 50 RU of the antibody-half molecule A of interest and then interact with the antibody-half molecule B of interest diluted with the running buffer at 2.5 mg/mL for 180 seconds at a flow rate of 30 μL/min, and measurement was carried out. The molar binding ratio was calculated based on the following Formula 2. The antibody-half molecule A captured on the chip was washed as described in the instructions attached to the kit, and the chip was regenerated and reused.
(§2) At this time, for the antibody-half molecule to be captured, PF1H (SEQ ID NO: 22), which is the H chain variable region portion of the anti-human IL6 receptor antibody described in WO 2009/041621, was used as the H chain variable region portion, PF1L (SEQ ID NO: 23), which is the L chain variable region portion of the anti-human IL6 receptor antibody described in WO 2009/041621, was used as the L chain variable region portion, and k0 was used as the L chain constant region portion. In addition, for the antibody-half molecules used as analytes, IC17H (SEQ ID NO: 24), which is the anti-KLH antibody described in WO 2015/174439, was used as the H chain variable region, IC17L (SEQ ID NO: 25), which is the anti-KLH antibody described in WO 2015/174439, was used as the L chain variable region, and k0 was used as L chain constant region.

[2] = target: T1, antibody-half molecule A1 with PF1H / …; test: SPR (Biacore T200), about 50 RU of half molecule A captured via biotinylated antigen peptide, half molecule B as analyte at 2.5 mg/mL, 25 C
Procedure: as §1
as §2, with “the antibody-half molecules to be” for “the antibody-half molecule to be”, “used as the L chain” for “used as L chain”

[3] = target: antibody-half molecule A4 with PF1H / PF1L-k0 (PF1H-DA424v2/PF1L-k0); test: as above
Procedure: as §1
as §2, with “the antibody-half molecules to be” for “the antibody-half molecule to be”, “used as the L chain” for “used as L chain”

[4] = target: antibody-half molecule A7 with PF1H / PF1L-k0 (PF1H-DA303v2.n.HATF.B/PF1L-k0); test: SPR (Biacore T200), about 50 RU of half molecule A captured via biotinylated antigen peptide, half molecule B as analyte at 2.5 mg/mL, 25 C (Example 10)
Procedure: as §1, §2

[5] = target: antibody-half molecule A5 with PF1H / PF1L-k0 (PF1H-DA430v2/PF1L-k0); test: SPR (Biacore T200), about 50 RU of half molecule A captured via biotinylated antigen peptide, half molecule B as analyte at 2.5 mg/mL, 25 C
Procedure: as §1
as §2, with “the antibody-half molecules to be” for “the antibody-half molecule to be”, “used as the L chain” for “used as L chain”

[6] = target: antibody-half molecule A6 with PF1H / PF1L-k0 (PF1H-DA303v2.n.n/PF1L-k0); test: SPR (Biacore T200), about 50 RU of half molecule A captured via biotinylated antigen peptide, half molecule B as analyte at 2.5 mg/mL, 25 C (Example 10)
Procedure: as §1, §2

B3: antibody-half molecule B7 with IC17H / IC17L-k0 (IC17H-DB220v2.n.HATF.A/IC17L-k0) (antibody, human IgG1, kappa)
heavy: QVQLQQSGPQLVRPGASVKISCKASGYSFTSYWMHWVNQRPGQGLEWIGMIDPSYSETRLNQKFKDKATLTVDKSSSTAYMQLSSPTSEDSAVYYCALYGNYFDYWGQGTTLTVSSASTKGPSVFPLAPSSKSTSGGTAALGCLVKDYFPEPVTVSWNSGALTSGVHTFPAVLQSSGLYSLSSVVTVPSSSLGTQTYICNVNHKPSNTKVDKKVEPKSCDKTHTSPPSPAPELLGGPSVFLFPPKPKDTLMISRTPEVTCVVVDVSHEEPEVKFNWYVDGVEVHNAKTKPREEQYNSTYRVVSVLTVLHQDWLNGKEYKCKVSNDALPMPIEETISKAKGQPREPQVYTLPPSRDELTKNQVHLTCLVKGFYPSDIAVEWESNGQPENNYKTTPPYLDSDGSFALYSDLTVDKSRWQQGNVFSCSVMHEALHNHYTQKSLSLSP
light: DIQMTQSSSSFSVSLGDRVTITCKASEDIYNRLAWYQQKPGNAPRLLISGATSLETGVPSRFSGSGSGKDYTLSITSLQTEDVATYYCQQYWSTPYTFGGGTKLEVKRTVAAPSVFIFPPSDEQLKSGTASVVCLLNNFYPREAKVQWKVDNALQSGNSQESVTEQDSKDSTYSLSSTLTLSKADYEKHKVYACEVTHQGLSSPVTKSFNRGEC
molar binding ratio [4]: 0.32

B4: antibody-half molecule B5 with IC17H / IC17L-k0 (IC17H-DB430v2/IC17L-k0) (antibody, human IgG1, kappa)
heavy: QVQLQQSGPQLVRPGASVKISCKASGYSFTSYWMHWVNQRPGQGLEWIGMIDPSYSETRLNQKFKDKATLTVDKSSSTAYMQLSSPTSEDSAVYYCALYGNYFDYWGQGTTLTVSSASTKGPSVFPLAPSSKSTSGGTAALGCLVKDYFPEPVTVSWNSGALTSGVHTFPAVLQSSGLYSLSSVVTVPSSSLGTQTYICNVNHKPSNTKVDKKVEPKSCDKTHTSPPSPAPELLGGPSVFLFPPKPKDTLMISRTPEVTCVVVDVSHEEPEVKFNWYVDGVEVHNAKTKPREEQYNSTYRVVSVLTVLHQDWLNGKEYKCKVSNDALPMPIEETISKAKGQPREPQVYTLPPSRDLLTKNQVSLTCLVKGFYPSDIAVEWESNGQPENNYKTTPPYLDSDGSFFLYSDLTVDKSRWQQGNVFSCSVMHEALHNHYTQESLSLSP
light: DIQMTQSSSSFSVSLGDRVTITCKASEDIYNRLAWYQQKPGNAPRLLISGATSLETGVPSRFSGSGSGKDYTLSITSLQTEDVATYYCQQYWSTPYTFGGGTKLEVKRTVAAPSVFIFPPSDEQLKSGTASVVCLLNNFYPREAKVQWKVDNALQSGNSQESVTEQDSKDSTYSLSSTLTLSKADYEKHKVYACEVTHQGLSSPVTKSFNRGEC
molar binding ratio [5]: 0.27

B5: antibody-half molecule B6 with IC17H / IC17L-k0 (IC17H-DB220v2.n.n/IC17L-k0) (antibody, human IgG1, kappa)
heavy: QVQLQQSGPQLVRPGASVKISCKASGYSFTSYWMHWVNQRPGQGLEWIGMIDPSYSETRLNQKFKDKATLTVDKSSSTAYMQLSSPTSEDSAVYYCALYGNYFDYWGQGTTLTVSSASTKGPSVFPLAPSSKSTSGGTAALGCLVKDYFPEPVTVSWNSGALTSGVHTFPAVLQSSGLYSLSSVVTVPSSSLGTQTYICNVNHKPSNTKVDKKVEPKSCDKTHTSPPSPAPELLGGPSVFLFPPKPKDTLMISRTPEVTCVVVDVSHEEPEVKFNWYVDGVEVHNAKTKPREEQYNSTYRVVSVLTVLHQDWLNGKEYKCKVSNDALPMPIEETISKAKGQPREPQVYTLPPSRDELTKNQVSLTCLVKGFYPSDIAVEWESNGQPENNYKTTPPYLDSDGSFFLYSDLTVDKSRWQQGNVFSCSVMHEALHNHYTQKSLSLSP
light: DIQMTQSSSSFSVSLGDRVTITCKASEDIYNRLAWYQQKPGNAPRLLISGATSLETGVPSRFSGSGSGKDYTLSITSLQTEDVATYYCQQYWSTPYTFGGGTKLEVKRTVAAPSVFIFPPSDEQLKSGTASVVCLLNNFYPREAKVQWKVDNALQSGNSQESVTEQDSKDSTYSLSSTLTLSKADYEKHKVYACEVTHQGLSSPVTKSFNRGEC
molar binding ratio [6]: 0.42

Further lines, results first:

molar binding ratio [1]: 0.54
molar binding ratio [2]: 0.38
B1: antibody-half molecule B1 with IC17H / IC17L-k0 (IC17H-DB220v2/IC17L-k0) (antibody, human IgG1, kappa)
heavy: QVQLQQSGPQLVRPGASVKISCKASGYSFTSYWMHWVNQRPGQGLEWIGMIDPSYSETRLNQKFKDKATLTVDKSSSTAYMQLSSPTSEDSAVYYCALYGNYFDYWGQGTTLTVSSASTKGPSVFPLAPSSKSTSGGTAALGCLVKDYFPEPVTVSWNSGALTSGVHTFPAVLQSSGLYSLSSVVTVPSSSLGTQTYICNVNHKPSNTKVDKKVEPKSCDKTHTSPPSPAPELLGGPSVFLFPPKPKDTLMISRTPEVTCVVVDVSHEEPEVKFNWYVDGVEVHNAKTKPREEQYNSTYRVVSVLTVLHQDWLNGKEYKCKVSNDALPMPIEETISKAKGQPREPQVYTLPPSRDELTKNQVSLTCLVKGFYPSDIAVEWESNGQPENNYKTTPPYLDSDGSFFLYSDLTVDKSRWQQGNVFSCSVMHEALHNHYTQESLSLSP
light: DIQMTQSSSSFSVSLGDRVTITCKASEDIYNRLAWYQQKPGNAPRLLISGATSLETGVPSRFSGSGSGKDYTLSITSLQTEDVATYYCQQYWSTPYTFGGGTKLEVKRTVAAPSVFIFPPSDEQLKSGTASVVCLLNNFYPREAKVQWKVDNALQSGNSQESVTEQDSKDSTYSLSSTLTLSKADYEKHKVYACEVTHQGLSSPVTKSFNRGEC

molar binding ratio [3]: 0.25
B2: antibody-half molecule B4 with IC17H / IC17L-k0 (IC17H-DB424v2/IC17L-k0) (antibody, human IgG1, kappa)
heavy: QVQLQQSGPQLVRPGASVKISCKASGYSFTSYWMHWVNQRPGQGLEWIGMIDPSYSETRLNQKFKDKATLTVDKSSSTAYMQLSSPTSEDSAVYYCALYGNYFDYWGQGTTLTVSSASTKGPSVFPLAPSSKSTSGGTAALGCLVKDYFPEPVTVSWNSGALTSGVHTFPAVLQSSGLYSLSSVVTVPSSSLGTQTYICNVNHKPSNTKVDKKVEPKSCDKTHTSPPSPAPELLGGPSVFLFPPKPKDTLMISRTPEVTCVVVDVSHEEPEVKFNWYVDGVEVHNAKTKPREEQYNSTYRVVSVLTVLHQDWLNGKEYKCKVSNDALPMPIEETISKAKGQPREPQVYTLPPSRDNLTKNQVSLTCLVKGFYPSDIAVEWESNGQPENNYKTTPPYLDSDGSFFLYSDLTVDKSRWQQGNVFSCSVMHEALHNHYTQESLSLSP
light: DIQMTQSSSSFSVSLGDRVTITCKASEDIYNRLAWYQQKPGNAPRLLISGATSLETGVPSRFSGSGSGKDYTLSITSLQTEDVATYYCQQYWSTPYTFGGGTKLEVKRTVAAPSVFIFPPSDEQLKSGTASVVCLLNNFYPREAKVQWKVDNALQSGNSQESVTEQDSKDSTYSLSSTLTLSKADYEKHKVYACEVTHQGLSSPVTKSFNRGEC
